Reference: paper PMC7033180, “An endocannabinoid catabolic enzyme FAAH and its paralogs in an early land plant reveal evolutionary and functional relationship with eukaryotic orthologs” (Scientific Reports, 2020)

T1: PpFAAH1 (Physcomitrium patens, UniProt A0A7I4CIU2)
T1 construct: full length cDNA in pDEST15 (GST tag), E. coli BL21(DE3), GST column, tag removal not mentioned; cloning primers translate to N-terminus MAQNKMR and C-terminus FYNILK; catalytic triad K202, S278, S302
T1 sequence (A0A7I4CIU2 1-601): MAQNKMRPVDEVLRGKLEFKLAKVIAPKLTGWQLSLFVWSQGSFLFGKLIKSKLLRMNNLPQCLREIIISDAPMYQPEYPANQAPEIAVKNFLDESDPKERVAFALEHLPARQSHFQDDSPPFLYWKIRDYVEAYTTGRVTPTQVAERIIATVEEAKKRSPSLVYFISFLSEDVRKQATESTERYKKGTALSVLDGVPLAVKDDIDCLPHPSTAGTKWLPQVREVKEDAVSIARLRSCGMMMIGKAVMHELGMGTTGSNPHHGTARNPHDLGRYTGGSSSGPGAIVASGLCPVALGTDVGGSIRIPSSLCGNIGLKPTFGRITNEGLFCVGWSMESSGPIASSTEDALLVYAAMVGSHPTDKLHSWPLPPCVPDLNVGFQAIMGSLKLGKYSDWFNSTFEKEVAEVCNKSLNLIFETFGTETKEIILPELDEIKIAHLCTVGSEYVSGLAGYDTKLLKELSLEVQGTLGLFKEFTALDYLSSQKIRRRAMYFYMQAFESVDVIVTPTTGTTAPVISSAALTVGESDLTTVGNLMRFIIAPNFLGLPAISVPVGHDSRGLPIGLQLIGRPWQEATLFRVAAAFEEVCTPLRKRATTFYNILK

B1: PpFAAH1 (Physcomitrium patens) (protein)
chain: T1 sequence (A0A7I4CIU2 1-601)
notes: full length cDNA in pDEST15 (GST tag), E. coli BL21(DE3), GST column, tag removal not mentioned; cloning primers translate to N-terminus MAQNKMR and C-terminus FYNILK; catalytic triad K202, S278, S302

What was measured:
PpFAAH1 = biological target: T1, PpFAAH1; assay: radiolabeled amidohydrolase assay, TLC with radiometric scanner, […] min preincubation with inhibitor; format: biochemical; details: read-out: % inhibition at 10 nM
[1] = substrate: CCCCC/C=C\C/C=C\C/C=C\C/C=C\CCCC(=O)NCCO; assay: radiolabeled amidohydrolase assay, TLC with radiometric scanner; format: biochemical, Physcomitrium patens; details: pH 8.0, 37 °C, labelled compound ([1-14C])
Description: radiolabeled amidohydrolase assay, TLC with radiometric scanner on PpFAAH1 | The kinetic parameters, Km and Vmax for PpFAAH1 with anandamide as a substrate were determined

| Molecule | inhibition at 0.01 µM (PpFAAH1) [%] | Km [1] [µM] | kcat [1] [S^−1] |
| --- | --- | --- | --- |
| NC(=O)c1cccc(-c2cccc(OC(=O)NC3CCCCC3)c2)c1 [URB597, [3-(3-carbamoylphenyl)phenyl] N-cyclohexyl carbamate] | 20 | – | – |
| B1 | – | 2.3 | 1.4 |
